PMC6588359
Each block holds one substance with its values, some of them ahead of it.

Tests used:
[1] = molecular target: amyloid-β40 (Aβ40); assay: native MS; native nano-ESI-IMS-MS, positive ionization; Aβ40 alone or 1:1 mol/mol with Aβ_(16–22); samples incubated 5 min at 37°C without agitation, analysed immediately following mixing
[2] = molecular target: amyloid-β40 (Aβ40)

- stoichiometry N [1]: 1
Substance: amyloid-β40 (Aβ40) (peptide)

- ThT fluorescence: average t1/2 of Aβ40 aggregation with sonicated Aβ (16–22) fibrils [2]: 6.2 h
- ThT fluorescence: average t1/2 of Aβ40 aggregation with unfragmented (unsonicated) Aβ (16–22) fibrils [2]: 7.2 h
Substance: Aβ_(16–22) (peptide)

Substance: Aβ_(16–22)
- percent heterodimers by total ion count [1]: 1.0 ± 0.5%
